The values below come from publication PMC10562255, “APOBEC3B regulates R-loops and promotes transcription-associated mutagenesis in cancer”.

This data set addresses APOBEC3B (A3B) WT (human, UniProt Q9UH17 1-382). In words: EMSA with unlabeled self-competitor; binds ssDNA and ssRNA equally strongly; Competition EMSA: 25 mM HEPES pH 7.4, 50 mM NaCl, 0.4 U/ul RNase inhibitor, room temperature, 5 min binding plus 10 min with competitor; R-loop substrate EMSA:
As to conditions: protein: recombinant; tags: C-terminal mycHis; label: 5' IRDye800CW. (In general: A gel shift assay detects complexes by their altered migration in electrophoresis.)

APOBEC3B (A3B) WT, sequence (Q9UH17 whole entry): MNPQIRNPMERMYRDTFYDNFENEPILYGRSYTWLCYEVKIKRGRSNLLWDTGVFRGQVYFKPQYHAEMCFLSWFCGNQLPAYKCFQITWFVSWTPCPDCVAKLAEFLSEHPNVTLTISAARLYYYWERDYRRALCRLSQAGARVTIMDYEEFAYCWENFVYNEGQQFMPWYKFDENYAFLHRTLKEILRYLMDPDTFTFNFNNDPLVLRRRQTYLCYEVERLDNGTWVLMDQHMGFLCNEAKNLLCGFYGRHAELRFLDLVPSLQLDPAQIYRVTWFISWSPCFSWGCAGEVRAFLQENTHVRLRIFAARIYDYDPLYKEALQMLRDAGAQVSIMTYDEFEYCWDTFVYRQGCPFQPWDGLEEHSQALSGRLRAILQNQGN

B1: short 15-mer ssRNA (A3B RNA EMSA) (ssRNA)
RNA: AUUAGUCAUAUGGAU
Consider B1, for which the binding result was “binds”.

B2: short 15-mer ssDNA (A3B DNA EMSA) (ssDNA)
DNA: ATTAGTCATATGGAT
Consider B2, for which the binding result is listed as “binds”.
